What was measured:
Assay in all cases: two-hybrid
GAL4/LEF-1 (297–399) = GAL4/LEF-1 (297–399) (UniProt Q9UJU2)
GAL4/Imp βΔ1/261 (human) = GAL4/Imp βΔ1/261 (human) (UniProt Q14974)
GAL4/CAS (human) = GAL4/CAS (human) (UniProt P55060)
GAL4/CAS (human), sequence (P55060 whole entry, the tested form may be a part): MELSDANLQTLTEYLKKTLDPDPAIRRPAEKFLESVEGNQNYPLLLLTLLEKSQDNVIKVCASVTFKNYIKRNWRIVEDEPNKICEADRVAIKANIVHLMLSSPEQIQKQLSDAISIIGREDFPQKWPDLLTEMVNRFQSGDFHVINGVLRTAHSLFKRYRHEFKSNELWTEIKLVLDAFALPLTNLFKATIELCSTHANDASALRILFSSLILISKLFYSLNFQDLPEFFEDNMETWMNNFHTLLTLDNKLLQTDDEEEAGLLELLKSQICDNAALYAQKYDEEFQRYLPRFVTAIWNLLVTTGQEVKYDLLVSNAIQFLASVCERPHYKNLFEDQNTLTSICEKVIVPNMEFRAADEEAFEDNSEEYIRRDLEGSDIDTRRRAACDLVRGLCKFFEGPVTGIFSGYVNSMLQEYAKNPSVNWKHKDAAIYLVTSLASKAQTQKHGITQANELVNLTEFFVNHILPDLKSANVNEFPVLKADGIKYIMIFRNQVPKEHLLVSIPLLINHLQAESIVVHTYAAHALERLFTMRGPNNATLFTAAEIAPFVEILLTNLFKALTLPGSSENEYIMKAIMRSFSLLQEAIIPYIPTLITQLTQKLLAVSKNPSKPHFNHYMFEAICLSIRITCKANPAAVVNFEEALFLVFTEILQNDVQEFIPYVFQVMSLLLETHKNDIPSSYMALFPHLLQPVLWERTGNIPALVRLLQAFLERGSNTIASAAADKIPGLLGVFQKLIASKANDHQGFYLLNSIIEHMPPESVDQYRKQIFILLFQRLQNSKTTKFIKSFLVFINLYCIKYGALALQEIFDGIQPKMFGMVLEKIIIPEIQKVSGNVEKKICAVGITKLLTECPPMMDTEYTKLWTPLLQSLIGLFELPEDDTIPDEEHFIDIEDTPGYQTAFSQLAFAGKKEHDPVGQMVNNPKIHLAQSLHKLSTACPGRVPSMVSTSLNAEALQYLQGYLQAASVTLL

GAL4/LEF-1 (297–399), sequence (Q9UJU2 297-399): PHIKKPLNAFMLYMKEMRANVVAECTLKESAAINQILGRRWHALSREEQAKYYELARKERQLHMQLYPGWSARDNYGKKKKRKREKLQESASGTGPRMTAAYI
GAL4/Imp βΔ1/261 (human), sequence (Q14974 262-876, stated change not applied): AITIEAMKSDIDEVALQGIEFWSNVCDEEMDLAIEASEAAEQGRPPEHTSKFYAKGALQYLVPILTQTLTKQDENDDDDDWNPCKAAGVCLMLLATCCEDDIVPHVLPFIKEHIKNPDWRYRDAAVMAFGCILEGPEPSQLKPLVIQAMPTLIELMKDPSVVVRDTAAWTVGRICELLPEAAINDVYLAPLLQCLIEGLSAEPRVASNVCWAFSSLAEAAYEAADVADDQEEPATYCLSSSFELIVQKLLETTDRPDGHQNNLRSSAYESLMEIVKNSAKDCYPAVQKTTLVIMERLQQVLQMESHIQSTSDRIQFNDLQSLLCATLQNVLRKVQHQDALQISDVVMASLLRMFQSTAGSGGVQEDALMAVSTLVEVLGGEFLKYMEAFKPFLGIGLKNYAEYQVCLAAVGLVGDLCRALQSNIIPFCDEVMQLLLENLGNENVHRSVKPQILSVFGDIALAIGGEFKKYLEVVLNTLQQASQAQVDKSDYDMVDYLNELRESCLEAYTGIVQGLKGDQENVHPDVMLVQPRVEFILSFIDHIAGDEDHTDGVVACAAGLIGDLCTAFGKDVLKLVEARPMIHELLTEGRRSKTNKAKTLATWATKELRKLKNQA

## VP16/Imp α2 (from UniProt P52292 1-529) (natural protein)
GAL4/LEF-1 (297–399)
  β-gal activity: 130 mOD/ml
GAL4/Imp βΔ1/261 (human)
  β-gal activity: 1200 mOD/ml
GAL4/CAS (human)
  β-gal activity: 434 mOD/ml

Reference: article PMC2132842
